Results reported in patent US7048919B2, “Osteoclast secreted chemokine and uses thereof” (The UAB Research Foundation, priority 2000, dated 2006).

Key:
[1] = test system: p42/44 MAP-kinase in MG63 cells; assay: p42/p44 MAP kinase activation, phospho-specific Western blot; format: cell-based, human
Experimental: Cells were treated with 2 μg/ml of purified mim-1 for the indicated times, washed, lysed and 25 […] protein resolved on 10% SDS PAGE. Protein was transferred to PVDF membrane and the membranes probed with phospho-specific p42/p44 MAP kinase antibody (New England Biolabs).
Mim-1 also stimulated the increased p42/44 MAP-kinase phosphorylation in a time-dependent manner in MG63 cells. The time dependence of mim-1 activation of MAP kinase by Western analysis with the phospho specific MAP kinase antibody was tested. This antibody detects only the phosphorylated (activated) form of MAP kinase (FIG. 16). Mim-1 stimulates the time dependent activation of MAP kinase with maximal effects at 3 minutes (compare this with 2 μg/ml in FIG. 15). The concentration dependence for activation of MAP kinase was maximal at 1–2 μg/ml (not shown) similar to the effects of mim-1 on tyrosine phosphorylation (FIG. 15).

[2] = test system: mesenchymal stem cells (osteoblast precursors); assay: Transwell migration assay of calcein-loaded mesenchymal stem cells; format: cell-based
Experimental: Mesenchymal stem cells were loaded in the presence of 5 μM calcein in αMEM, and the cells washed twice with media. Cells were plated at 10,000 cells/well in the upper well of Neuroprobe transwell plates. The concentration dependence of mim-1 in migration assays was determined in the transwell migration assay with the indicated concentrations of mim-1 in the bottom chamber. Cells were cultured for 4 hours at 37° C. in a humidified chamber with 5% CO2. Remaining cells were scraped from the upper well and removed. Migration was measured on a fluorescence plate-reader which measures fluorescence in the bottom well and migration was quantified by comparisons with a standard curve generated by serial dilutions of calcein loaded cells plated directly in the bottom chamber. Data is from a single experiment performed in quadruplicate.

[3] = test system: mesenchymal stem cells; assay: Cell proliferation of osteoblast precursor cells; format: cell-based; conditions: concentrations up to 2 μg/ml
[4] = test system: human bone marrow cells; assay: FACS analysis of human bone marrow cell cultures (CD14+); format: cell-based; conditions: 2 μg/ml mim-1, 3 days
Experimental: Human bone marrow cells were cultured in IMDM with GM-CSF (50 ng/ml), IL3 (10 ng/ml) and 20 ng/ml SCF (controls) for 3 days −/+2 […] mim-1 and analyzed by FACS analysis. The remaining cells were cultured in colony formation assays an additional 14 days with the same growth factors minus or plus 2 μg/ml mim-1. Data is the average −/+ SEM of 3 separate experiments.
Human bone marrow cells were cultured in IMDM with GM-CSF (50 ng/ml), IL3 (10 ng/ml) and […] SCF (controls) for 3 days with or without 2 μg/ml mim-1. The cells were analyzed by FACS analysis. The remaining cells were cultured in colony formation assays an additional 14 days with the same growth factors with or without 2 μg/ml mim-1.

[5] = test system: mouse marrow macrophage; assay: Osteoclast-like cell differentiation, mouse marrow macrophage differentiation model; format: cell-based; conditions: presence of M-CSF and soluble RANKL
[6] = test system: cbfal binding to osteocalcin promoter in MG63 cells; assay: cbfal binding to osteocalcin promoter site, electrophoretic mobility shift assay; format: cell-based, human
Experimental: (§1) FIG. 17A show cells treated with 2 μg/ml of purified mim-1 for 0, 10, 30, 60, 120, and 240 min washed, lysed and nuclear extracts prepared. A 27 bp oligonucleotide from the osteocalcin proximal cbfal binding site was 5′ end labeled with γ^32P-ATP by T4 kinase. Equivalent amounts of nuclear extracts were incubated with the probe for 30 min and samples resolved on a 5% gel, fixed, dried and binding visualized by autoradiography.
as §1, with “Cells were treated” for “FIG. 17A show cells treated”, “240 min,” for “240 min”, “with ^32P-ATP” for “with γ^32P-ATP”, “by autoradiography for specific binding.” for “by autoradiography.”
Similarly, cells were treated with 0, 0.02, 0.3 and 2.0 μg/ml of mim-1 for 2 hrs and mobility shifts done as discussed.

[7] = test system: A549, lung cancer; assay: Cancer cell growth inhibition, cell counts; format: cell-based, human; conditions: A549, three days, 0.5-4 μg/ml mim-1
Experimental: (§2) Cancer cells (A549, lung cancer; MDA231, Breast cancer; and AD10, ovarian cancer) were cultured for three days in the presence of the indicated concentrations of mim-1. Cells were counted in 10 random grids, and the data is plotted as Percent of Control (no added mim-1). Data are representative of 2 separate experiments.
(§3) Three cancer cell lines (A549, lung cancer; MDA231, breast cancer; and AD10, ovarian cancer) were cultured for three days in the presence of 0 (control), 0.5, 1, 2 and 4 μg/ml of mim-1. Cells were counted in 10 random grids, and the data is plotted as Percent of Control (no added mim-1).

[8] = test system: AD10, ovarian cancer; assay: Cancer cell growth inhibition, cell counts; format: cell-based, human; conditions: AD10, three days, 0.5-4 μg/ml mim-1
Experimental: as §2, §3

[9] = test system: MDA231, breast cancer; assay: Cancer cell growth inhibition, cell counts; format: cell-based, human; conditions: MDA231, three days, 0.5-4 μg/ml mim-1
Experimental: as §2, §3

[10] = test system: Vitamin D receptor binding to the VDRE in MG63 cells; assay: Vitamin D receptor binding to the VDRE, electrophoretic mobility shift assay; format: cell-based, human; conditions: 2 μg/ml mim-1, absence of added 1,25(OH)2 D3
Experimental: Competitive displacement (CD) of vitamin D receptor interaction by 100× of cold probe. […] CD is competitive displacement as in FIG. 18A and NS is incubaton with 100× NonSpecific probe (vitellogenin estrogen response element), both were included as controls with 2 hr mim-1 extracts.
Double stranded oligonucleotide probe, corresponding to the VDRE from the human osteocalcin promoter, is ^32P-labeled with T4 kinase and incubated with nuclear extracts from MG-63 cells treated with 2 μg/ml of mim-1 for 0, 10, 30, 60 and 120 minutes, respectively. Vitamin D receptor interaction was displaced competitively by 100× of cold probe. The cells were then treated with mim-1 for 2 to 3 hrs and VDR/VDRE supershifted with a 1:5 or 1:10 dilution of VDR polyclonal antibody 4707. Competitive displacement with cold probe and incubaton with 100× vitellogenin estrogen response element as a non-specific probe were included as […] controls with 2 hr mim-1 extracts. VDR/VDRE from MG63 cells was compared to recombinant VDR heterodimer (rVDRhd).

[11] = test system: MC3T3-E1 cells; assay: In vitro matrix mineralization (VonKossa staining, total calcium); format: cell-based; conditions: 16 days
Experimental: MC3T3-E1 cells (2.5×10^4 cells/well) were cultured in DMEM/F12 plus 1% FBS in the presence of 10 mM glycerophosphate, 50 μg/ml ascorbic acid and either, 0, 3 or 15 nM (FIGS. 19A–C, respectively) of purified mim-1 for 16 days. […] 200× magnification, data is representative of n=2 experiments. VonKossa staining was confirmed by measuring total calcium in each well. Calcium was acid hydrolyzed, neutralized and measured on a Kodak Ektachem DTSC II and the results illustrated in the bar graph at the right. Calcium measurements are representative single determinations from 2 separate experiments.
MC3T3-E1 cells, seeded at 2.5×10^4 cells/well, were cultured in DMEM/F12 plus 1% FBS in the presence of 10 mM glycerophosphate, 50 μg/ml ascorbic acid and either 0, 3 or 15 nM of purified mim-1 for 16 days. […] VonKossa staining was confirmed by measuring total calcium in each well. The calcium was acid hydrolyzed, neutralized and measured on a Kodak Ektachem DTSC II.

B1: mim-1: 35 kD osteoclast secreted chemokine-like protein, SEQ ID NO: 8, homologous with Lect2 (protein, listed as Gallus gallus)
chain: MPALSLIALLSLVSTAFARQWEVHPPQQQGRHWAQICSGNPFNRIRGCDRYGCGNYGASRQGKGEKHKGVDVICTDGSIVYAPFWGQLSGPIRFFHNGNAIDDGVQISGSGYCVKLVCIHPIRYHGQIQKGQQLGRMLPMQKVFPGIVSHIHVENCDQSDPTHLLRPIPDISPPFPQQDAHWAVVCAGNPTNEIRGCKDYGCGYFGAPRRNGKGEKHKGVDVICADGATVYAPFSGELSGPVKFFHNGNAIDDGVGIRGSGFCVKLLCIHPIRYNGRISKGQVLGRMLPMQRVFPGIISHIHVENCDRSDPTSNLERGKGESEMEV
modifications: amino acid sequence of mim-1 protein
time of maximal activation of MAP kinase ([1]; 2 μg/ml mim-1): 3 min | concentration of maximal activation of MAP kinase ([1]; not shown): 1 to 2 µg/mL | concentration of maximal effect on mesenchymal stem cell migration ([2]; 4 hours, purified mim-1 in bottom chamber): approximately 100 ng/ml | concentration to stimulate migration lower than that to stimulate tyrosine phosphorylation ([2]; migration versus tyrosine phosphorylation): five- and ten-fold | effect on cell proliferation [3]: no effect | proportion of CD14+ cells [4]: increase in the proportion of cells that are CD14^+ | osteoclast-like cell differentiation [5]: effectively blocks osteoclast-like cell differentiation | cbfal binding above control levels ([6]; 20 ng/ml mim-1, 2 hrs): ~2 fold | concentration to stimulate cbfal binding lower than that to stimulate tyrosine phosphorylation ([6]; 20 ng/ml versus tyrosine phosphorylation): 5–10 fold | time of maximal cbfal binding ([6]; 2 μg/ml mim-1): 2 h | increase in binding of cbfal transcription factor to osteocalcin oligonucleotide probe ([6]; 2 μg/ml mim-1, MG63 cells): five-fold | decrease in cbfal binding from maximum ([6]; 2 μg/ml mim-1, by 4 hours): ~30% | inhibition of cell growth [7]: concentration dependent inhibition of cell growth | inhibition of cell growth [8]: concentration dependent inhibition of cell growth | inhibition of cell growth [9]: concentration dependent inhibition of cell growth | Vitamin D receptor binding to the VDRE [10]: stimulated Vitamin D receptor binding to the VDRE in a time dependent manner | concentration of maximal effect on mineralization [11]: 0.5 µg/mL
